Results reported in the supplement of paper PMC7125110.
± gives the standard error. For part of these data: Fewer inactive variants are shown than the library holds.

B1: glmS ribozyme (parent)
chain: AUAAAAGCGCCAGAACUACAGAAAUGUAGUUGACGAGGAGGAGGUUUAUCGAAUUUUCGGCGGAUGCCUCCAAA

Experiments:
Conditions in all cases: with glucosamine-6-phosphate
glucosamine-6-phosphate [1] = variants of: B1; experiment: kcat; higher = faster cleavage; RNA array
How it was run: (§1)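 Barcoded ribozyme variants, transcribed in situ by E. coli RNA polymerase on sequenced MiSeq chips, were followed via a hybridised Cy3 probe at 37 °C. Glucosamine-6-phosphate ranged from 40 μM to 10 mM in HEPES/KCl/Mg(OAc)2 buffer. kobs came from decay fits to per-tile medians, and kcat and KM from weighted Michaelis–Menten fits.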

glucosamine-6-phosphate [2] = variants of: B1; experiment: KM; higher = weaker cofactor use; RNA array
How it was run: as §1

glucosamine-6-phosphate [3] = variants of: B1; experiment: self-cleavage kobs at 160 uM GlcN6P; higher = faster cleavage; RNA array
How it was run: as §1

glucosamine-6-phosphate [4] = variants of: B1; experiment: self-cleavage kobs at 640 uM GlcN6P; higher = faster cleavage; RNA array
How it was run: as §1

glucosamine-6-phosphate [5] = variants of: B1; experiment: self-cleavage kobs at 2500 uM GlcN6P; higher = faster cleavage; RNA array
How it was run: as §1

glucosamine-6-phosphate [6] = variants of: B1; experiment: self-cleavage kobs at 10000 uM GlcN6P; higher = faster cleavage; RNA array
How it was run: as §1

glucosamine-6-phosphate [7] = variants of: B1; experiment: self-cleavage kobs at 40 uM GlcN6P; higher = faster cleavage; RNA array
How it was run: as §1

| Variant | kcat (glucosamine-6-phosphate [1]) [s⁻¹] | KM (glucosamine-6-phosphate [2]) [µM] | self-cleavage kobs at 160 uM GlcN6P (glucosamine-6-phosphate [3]) [s⁻¹] | self-cleavage kobs at 640 uM GlcN6P (glucosamine-6-phosphate [4]) [s⁻¹] | self-cleavage kobs at 2500 uM GlcN6P (glucosamine-6-phosphate [5]) [s⁻¹] | self-cleavage kobs at 10000 uM GlcN6P (glucosamine-6-phosphate [6]) [s⁻¹] | self-cleavage kobs at 40 uM GlcN6P (glucosamine-6-phosphate [7]) [s⁻¹] |
| --- | --- | --- | --- | --- | --- | --- | --- |
| U55G C58A | 0.000783 ± 0.00021 | 7730 ± 3000 | 2.76e-05 ± 1.3e-05 | 6.45e-05 ± 1e-05 | 0.000177 ± 2.2e-05 | 0.000461 ± 6.3e-05 | – |
| A14G A33G | < 1e-05 | – | < 1e-05 | – | < 1e-05 | < 1e-05 | < 1e-05 |
| A14G G43U | 0.000159 ± 2.6e-05 | 2770 ± 980 | – | 3.9e-05 ± 8.4e-06 | 6.85e-05 ± 8.5e-06 | 0.000131 ± 1.5e-05 | – |
| A12U G43A | 0.000218 ± 2.6e-05 | 2010 ± 540 | – | 4.88e-05 ± 1e-05 | 0.000139 ± 1.8e-05 | 0.000173 ± 2.2e-05 | – |
| U31A G32U | 0.00113 ± 0.00055 | – | 4.59e-05 ± 2e-05 | 6.96e-05 ± 1.7e-05 | 0.000256 ± 4.4e-05 | 0.0006 ± 0.00016 | – |
| U30A A64G | 0.00654 ± 0.00069 | 1670 ± 240 | 0.000656 ± 0.00022 | 0.00193 ± 0.00045 | 0.0035 ± 0.0008 | 0.00607 ± 0.0014 | 0.000149 ± 2.6e-05 |
| C50U C68A C71U | 2.67e-05 ± 9.8e-06 | – | – | – | – | – | – |
| G35U C50A | 8.05e-05 ± 9.8e-06 | 1970 ± 740 | – | – | 4.74e-05 ± 9e-06 | 6.59e-05 ± 1.2e-05 | – |
| G41C C71U | 0.000207 ± 2.1e-05 | 2580 ± 590 | – | 3.67e-05 ± 8.3e-06 | 0.000119 ± 1.8e-05 | 0.00016 ± 1.7e-05 | – |
| G38A G62U | < 1e-05 | – | – | < 1e-05 | – | – | – |
| C11G A14G | 1.62e-05 ± 3.1e-06 | – | < 1e-05 | – | – | – | < 1e-05 |
| U30A U46G | 0.000804 ± 0.00016 | – | – | – | 0.000638 ± 0.00022 | 0.000702 ± 8.5e-05 | 4.09e-05 ± 1.5e-05 |
| U47A U69A | 9.51e-05 ± 1.3e-05 | – | 0.00011 ± 4.9e-05 | 8.57e-05 ± 2.5e-05 | 0.000188 ± 8e-05 | 8.87e-05 ± 2e-05 | – |
| U46C C68G | 5.04e-05 ± 2e-06 | 811 ± 200 | – | – | – | 4.62e-05 ± 1.3e-05 | – |
| U31A G66A | 0.0119 ± 0.0032 | 6540 ± 2200 | 0.000259 ± 6.1e-05 | 0.00114 ± 0.00021 | 0.00305 ± 0.00048 | 0.00767 ± 0.0017 | 0.000105 ± 3.4e-05 |
| A12C U45C | 0.00344 ± 0.0011 | 7280 ± 3000 | 5.84e-05 ± 2.1e-05 | 0.000289 ± 7.9e-05 | 0.000907 ± 0.00016 | 0.00194 ± 0.00049 | 3e-05 ± 1.2e-05 |
| G60C C68A | 1.32e-05 ± 4.3e-06 | – | – | – | – | < 1e-05 | < 1e-05 |

| Variant | kcat (glucosamine-6-phosphate [1]) [s⁻¹] | KM (glucosamine-6-phosphate [2]) [µM] | self-cleavage kobs at 160 uM GlcN6P (glucosamine-6-phosphate [3]) [s⁻¹] | self-cleavage kobs at 640 uM GlcN6P (glucosamine-6-phosphate [4]) [s⁻¹] | self-cleavage kobs at 2500 uM GlcN6P (glucosamine-6-phosphate [5]) [s⁻¹] | self-cleavage kobs at 10000 uM GlcN6P (glucosamine-6-phosphate [6]) [s⁻¹] | self-cleavage kobs at 40 uM GlcN6P (glucosamine-6-phosphate [7]) [s⁻¹] |
| --- | --- | --- | --- | --- | --- | --- | --- |
| G40A U56A | 0.00543 ± 0.0016 | 3080 ± 1300 | 0.000256 ± 5.7e-05 | 0.00103 ± 0.00021 | 0.00192 ± 0.00042 | 0.00516 ± 0.0011 | 9.01e-05 ± 2.5e-05 |
| G13A U57C | 7.9e-05 ± 5.5e-06 | 4540 ± 780 | – | – | 2.88e-05 ± 9.2e-06 | 5.42e-05 ± 8.5e-06 | < 1e-05 |
| U55G U65A | 0.00461 ± 0.00094 | 3100 ± 880 | 0.000296 ± 4.5e-05 | 0.000695 ± 0.00011 | 0.00174 ± 0.00025 | 0.00388 ± 0.00043 | 6.02e-05 ± 7.6e-06 |
| A12G A53G | 0.0017 ± 0.00017 | 4470 ± 620 | 5.44e-05 ± 7.9e-06 | 0.000231 ± 3.1e-05 | 0.000633 ± 7e-05 | 0.00114 ± 0.00015 | – |
| U31A C58G | 0.000589 ± 0.00022 | – | – | – | 3.87e-05 ± 1.3e-05 | 0.00013 ± 1.9e-05 | – |
| U46C C50U | 1.22e-05 ± 2e-06 | – | – | – | – | – | < 1e-05 |
| G13U A53G C68G | 4.16e-05 ± 3.1e-06 | – | – | – | 4.16e-05 ± 1.5e-05 | – | – |
| C8U U49A | < 1e-05 | – | – | < 1e-05 | < 1e-05 | < 1e-05 | < 1e-05 |
| U49G A53C | 0.000546 ± 0.00023 | – | – | 7.82e-05 ± 2.4e-05 | 0.000369 ± 6.4e-05 | 0.000368 ± 8.5e-05 | – |
| A14C A15U | 0.000353 ± 2.4e-05 | 3640 ± 380 | – | 5.17e-05 ± 6.8e-06 | 0.000148 ± 1.9e-05 | 0.000256 ± 3.6e-05 | – |
| U31A C71A | 0.00261 ± 0.001 | – | 0.000449 ± 0.00013 | 0.00049 ± 0.00015 | 0.00162 ± 0.00035 | 0.00252 ± 0.00057 | 8.13e-05 ± 2.1e-05 |
| C67G C71U | 2.93e-05 ± 3.2e-06 | – | – | – | 3.07e-05 ± 8.1e-06 | 2.63e-05 ± 6.7e-06 | – |
| G29C C67G | 8e-05 ± 4.8e-06 | 1430 ± 280 | – | – | 4.84e-05 ± 1.1e-05 | 7.18e-05 ± 1.4e-05 | – |
| C34G U69A | 3.79e-05 ± 1.1e-05 | – | – | 5.16e-05 ± 1.3e-05 | 3.05e-05 ± 1.3e-05 | – | – |
| G38A U49A C58U | 2.37e-05 ± 3.2e-06 | 862 ± 380 | – | – | – | – | – |
| C10U U56A | 2.68e-05 ± 5.7e-06 | – | – | – | 3.47e-05 ± 1.4e-05 | – | < 1e-05 |
